Data taken from patent publication US9416178B2, “Jagged-binding agents and uses thereof” (OncoMed Pharmaceuticals, Inc., priority 2009, dated 2016).

Assays:
[1] = test system: PN17 pancreatic tumor cells; assay: PN17 pancreatic tumor xenograft model; type: in vivo, NOD/SCID mice; details: antibody 15 mg/kg twice a week or gemcitabine 5 mg/kg once a week, intraperitoneally, FIG. 7
Protocol: PN17 pancreatic tumor cells were injected subcutaneously into the flanks of NOD/SCID mice. 10,000 cells were injected per animal. Mice were monitored weekly and tumors were allowed to grow until they were approximately 145 mm^3. The mice were randomized into four treatment groups (n=10 mice/group) and treated with either control antibody (LZ-1), anti-Jagged 64M51, gemcitabine or a combination of 64M51 and gemcitabine. Gemcitabine was administered intraperitoneally at a dose of 5 mg/kg once a week and antibodies were administered intraperitoneally at a dose of 15 mg/kg twice a week.

OMP-Lu45 cells = assay: Lu45 lung tumor xenograft model (Example 16); type: in vivo, NOD/SCID mice; details: FIG. 14; for reduction of tumor growth, antibody in combination with taxol relative to taxol alone: antibody 15 mg/kg twice a week plus taxol 15 mg/kg once a week
Protocol: The anti-tumor activity of antibodies 64R7, 133R0201, 133R0203, 133R0205 and 133R206 was evaluated in the lung Lu45 tumor xenograft model. Dissociated OMP-Lu45 cells (50,000 per animal) were injected subcutaneously into 6-8 week old male NOD/SCID mice. Tumor growth was monitored weekly and tumor measurements were initiated once tumors were palpable. On day 41, mice with average tumor volumes of 132 mm^3 were randomized into 10 groups of 10 animals each. Animals were injected with control antibody, antibody 64R7, antibody 133R0201, antibody 133R0203, antibody 133R0205, antibody 133R0206 (all at 15 mg/kg), taxol (15 mg/kg), a combination of antibody 64R7 and taxol, a combination of antibody 133R0203 and taxol, or a combination of antibody 133R0205 and taxol. Administration of the antibodies and taxol was performed via injection into the intra-peritoneal cavity, once a week for taxol and twice a week for antibodies. Tumors were measured twice a week and tumor volume was determined using the formula ½(a×b^2); where a=length, and b=breadth. Data are expressed as mean and mean±S.E.M. Group means were compared using Student's two-tailed, unpaired t test.

[2] = test system: human Jagged2-induced Notch activation; assay: Notch luciferase reporter assay, two cell population format; type: cell-based; details: Example 14; PC3 cells; antibody 50 to 0.2 μg/ml; FIG. 12A
Excerpt: (§1) The ability of Jagged antibodies to inhibit Jagged-induced Notch signaling was also investigated using a two cell population assay format. One population of human PC3 cells was transfected with an expression vector encoding a full-length Notch2 receptor as well as plasmids encoding a Notch-dependent firefly luciferase reporter construct (8×CBF luciferase) and a Renilla luciferase reporter (Promega, Madison Wis.) as an internal transfection control. A second population of human PC3 cells was transfected with an expression vector encoding a full-length cDNA for either hJagged1 or hJagged2. Aliquots of the two cell populations were mixed together and incubated overnight in the presence of 64M51, 64R7 or 64R1B antibodies that were serially diluted 1:4 from 40 to 0.039 μg/ml, luciferase levels were measured 18 hours later using a dual luciferase assay kit (Promega, Madison, Wis.) with firefly luciferase activity normalized to Renilla luciferase activity. Shown is a titration of 64M51, 64R1B and 64R7 antibodies in this assay.
(§2) The ability of Jagged antibodies 133R0201, 133R0203, 133R0205, 133R0207, 133R0208, 133R0209 and 133R0210 to inhibit Jagged-induced Notch signaling was investigated using a two cell population assay format as described above in Example 6. One population of human PC3 cells was transfected with an expression vector encoding a full-length Notch2 receptor as well as plasmids encoding a Notch-dependent firefly luciferase reporter construct (8×CBF luciferase) and a Renilla luciferase reporter (Promega, Madison Wis.) as an internal transfection control. A second population of human PC3 cells was transfected with an expression vector encoding a full-length cDNA for either hJagged1 or hJagged2. Aliquots of the two cell populations were mixed together and incubated overnight in the presence of antibodies 64R7, 133R0201, 133R0203, 133R0205, 133R0207, 133R0208, 133R0209 and 133R0210 that were serially diluted 1:3 from 50 to 0.2 μg/ml. Luciferase levels were measured 18 hours later using a dual luciferase assay kit (Promega, Madison, Wis.) with firefly luciferase activity normalized to Renilla luciferase activity. Shown in FIGS. 12A and 12B are titrations of the antibodies in this assay.

[3] = test system: human Jagged1-induced Notch2 activation; assay: as above; type: cell-based; details: Example 14; PC3 cells; antibody 50 to 0.2 μg/ml; FIG. 12B
Excerpt: as §1, §2

OMP-Lu42 cells = assay: Lu42 lung tumor xenograft model; type: in vivo, NOD/SCID mice; details: 15 mg/kg intraperitoneally twice a week, FIG. 13
Protocol: The anti-tumor activity of antibodies 64R7, 133R0203, and 133R0205 were evaluated in the lung Lu42 tumor xenograft model. Dissociated OMP-Lu42 cells (50,000 per animal) were injected subcutaneously into 6-8 week old male NOD/SCID mice. Tumor growth was monitored weekly and tumor measurements were initiated once tumors were palpable. On day 54, mice with average tumor volumes of 114 mm^3 were randomized into 4 groups of 10 animals each. Animals were injected with 15 mg/kg of either control antibody, antibody 64R7, antibody 133R0203, or antibody 133R0205. Administration of the antibodies was performed via injection into the intraperitoneal cavity, twice a week. Tumors were measured twice a week and tumor volume was determined using the formula ½(a×b^2); where a=length, and b=breadth. Data are expressed as mean and mean±S.E.M. Group means were compared using Student's two-tailed, unpaired t test.

Molecule | tumor growth, single agent [1] | reduction in tumor growth, single agent compared to control antibody (OMP-Lu45 cells; 15 mg/kg twice a week) [%] | inhibition of human Jagged2-induced Notch activation, two cell population assay [2] | inhibition of human Jagged1-induced Notch activation, two cell population assay [3] | reduction in tumor growth, single agent compared to control antibody (OMP-Lu42 cells) [%] | reduction of tumor growth, antibody in combination with taxol relative to taxol alone (OMP-Lu45 cells)
Nc1ccn([C@@H]2O[C@H](CO)[C@@H](O)C2(F)F)c(=O)n1 [gemcitabine, reference compound] | transient initial response | – | – | – | – | –
133R0201: 64R7 variant anti-Jagged antibody; heavy chain variable region SEQ ID NO:50, light chain variable region SEQ ID NO:21 (antibody, V domains shown, 133R0201 Heavy chain variable region; 64R7 Light chain variable region) VH: QVQLVESGGGVVQPGRSLRLSCAASGFTFSSYAMHWVRQAPGKGLEWVAAIYPDSSNKYYADSVKGRFTISRDNSKNTLYLQMNSLRAEDTAVYYCARDKYDIPDAFDIWGQGTLVTVS VL: DIRMTQSPSSLSASVGDRVTITCRASQGISNDLAWYQQKPGKVPRLLIYATSTLQSGVPSRFSGSGSATDFTLTISSLQPEDVATYYCQQSYNAPITFGQGTRLEIK | – | 24 | inhibitors | inhibitors | – | –
133R0203: 64R7 variant anti-Jagged antibody; heavy chain variable region SEQ ID NO:51, light chain variable region SEQ ID NO:21 (antibody, V domains shown, 133R0203 Heavy chain variable region; 64R7 Light chain variable region) VH: QVQLVESGGGVVQPGRSLRLSCAASGFTFSSYAMHWVRQAPGKGLEWVAAISPEASNKYYADSVKGRFTISRDNSKNTLYLQMNSLRAEDTAVYYCARDKYDIPDAFDIWGQGTLVTVS VL: DIRMTQSPSSLSASVGDRVTITCRASQGISNDLAWYQQKPGKVPRLLIYATSTLQSGVPSRFSGSGSATDFTLTISSLQPEDVATYYCQQSYNAPITFGQGTRLEIK | – | – | inhibitors | inhibitors | 28 | 36%
133R0205: 64R7 variant anti-Jagged antibody; heavy chain variable region SEQ ID NO:52, light chain variable region SEQ ID NO:21 (antibody, V domains shown, 133R0205 Heavy chain variable region; 64R7 Light chain variable region) VH: QVQLVESGGGVVQPGRSLRLSCAASGFTFSSYAMHWVRQAPGKGLEWVAAIYPASSNKYYADSVKGRFTISRDNSKNTLYLQMNSLRAEDTAVYYCARDKYDIPDAFDIWGQGTLVTVS VL: DIRMTQSPSSLSASVGDRVTITCRASQGISNDLAWYQQKPGKVPRLLIYATSTLQSGVPSRFSGSGSATDFTLTISSLQPEDVATYYCQQSYNAPITFGQGTRLEIK | – | – | inhibitors | inhibitors | 33 | reduction of tumor growth
